Results on 20 molecules are retold here after patent US20240117334A1, “FACTOR B PROTEASES” (Vertex Pharmaceuticals Incorporated, priority 2021, published 2024).

Numbering of substitutions follows the chain as printed. Numbers in names are those of the source. Read-outs that look alike come from different tables or passages of the source.

The EC50 is the concentration giving half of the maximal effect.

The test system of series [1] is EGVD/AE-ACT (SEQ ID NO: 53). Description: Second order rate constant k*app with EGVD/AE-ACT serpin bait. The class given is biochemical. How it is done:
Selected chymase-based engineered proteases were tested to measure the activity of these proteases, by using an active site titration method based on reaction with the inhibitory serpin bait, followed by HPLC analysis to quantitate the active fraction. All references in this Example, including Table 9, to engineered proteases are depicted in chymotrypsin numbering. See Table 6 for the chymotrypsin numbering key for the modified protease domain of chymase. The HPLC analysis detects a shift in the measured peak when the serpin bait is present, an indication that the protease is binding the bait and therefore active. Briefly, a working concentration of 24 μM of serpin bait was prepared from stock solution, with 50 μM of low molecular weight heparin for antithrombin (AT)-based baits. Protease solutions were prepared by using 30 μL of a 5 μM working solution. Reaction mixtures were incubated for 2 hours at 37° C., and each reaction mixture (protease alone or protease with bait) was analyzed by HPLC using standard protocols. All protease alone samples were run first, then followed by the protease with serpin bait samples. A summary of the results for the proteases tested is summarized in Table 9 below. kcat/Km was measured using EGVD/AE-QF (SEQ ID NO: 52) and second order rate constant K*app was measured using EGVD/AE-ACT (SEQ ID NO: 53).

In series [2] the target is Human Factor B (Homo sapiens, UniProt P00751). Description: Human Factor B cleavage EC50 in 80% human plasma (Table 10A). The class given is biochemical. How it is done: Cleavage of Factor B by various engineered proteases was evaluated. Engineered chymase-, MTSP-1-, and uPA-based proteases were tested. All references in this Example, including Tables 10A, 10B, 11A, and 11B, to engineered proteases are depicted in chymotrypsin numbering. The chymotrypsin numbering key for the modified protease domains of engineered proteases are found in Tables 2, 4, and 6 for uPA, MTSP-1, and chymase, respectively. These experiments were also performed to evaluate the stability of non-naturally occurring chymases in various media, including cynomolgus monkey vitreous humor, human plasma, and phosphate buffered saline (PBS). Briefly, Factor B was diluted into an assay buffer and incubated at 37° C. with naturally occurring (wild type) and non-naturally occurring (engineered) proteases in vitreous humor, plasma, or PBS, and the reactions were quenched with HCl at various time points. The time points tested for chymase include T=0 which used 6 hours pre-incubation, T=2 hours which used 4 hours pre-incubation, T=4 hours which used 2 hours pre-incubation, and T=6 hours which used 0 hours pre-incubation. Assaying of the sample was performed with ELISA, or alpha screen for human C3 cleavage, using standard protocols.
Chain of Human Factor B (P00751 26-764): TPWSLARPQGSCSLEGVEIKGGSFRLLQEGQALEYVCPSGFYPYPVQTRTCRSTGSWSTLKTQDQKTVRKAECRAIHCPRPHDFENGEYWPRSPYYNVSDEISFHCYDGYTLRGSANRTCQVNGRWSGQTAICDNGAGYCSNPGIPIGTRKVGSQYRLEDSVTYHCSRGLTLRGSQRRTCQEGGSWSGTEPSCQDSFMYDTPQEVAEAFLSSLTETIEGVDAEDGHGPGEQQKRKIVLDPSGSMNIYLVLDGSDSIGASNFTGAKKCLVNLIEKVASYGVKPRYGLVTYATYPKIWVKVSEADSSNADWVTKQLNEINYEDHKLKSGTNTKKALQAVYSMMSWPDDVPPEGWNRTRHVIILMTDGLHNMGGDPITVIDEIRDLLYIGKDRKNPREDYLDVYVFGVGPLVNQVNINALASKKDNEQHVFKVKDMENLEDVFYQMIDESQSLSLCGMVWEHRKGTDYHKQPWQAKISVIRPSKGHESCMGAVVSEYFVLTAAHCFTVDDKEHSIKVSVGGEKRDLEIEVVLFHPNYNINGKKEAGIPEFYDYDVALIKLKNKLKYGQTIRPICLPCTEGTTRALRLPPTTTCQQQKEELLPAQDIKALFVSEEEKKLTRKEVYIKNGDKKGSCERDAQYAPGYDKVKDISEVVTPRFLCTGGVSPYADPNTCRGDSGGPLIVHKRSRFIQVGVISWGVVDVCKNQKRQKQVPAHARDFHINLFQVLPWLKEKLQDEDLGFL
A summary of the results is presented in Tables 10A-10B below, showing the various tested proteases, the concentration of the protease used in nM and the EC50 of human Factor B cleavage. Table 10 presents human Factor B cleavage by various non-naturally occurring chymase-based engineered proteases, tested in 80% human plasma, compared against a chymase comprising the mutation string […]. Blank cells indicate that a test was not performed for a particular protease mutation string.

A short description of series [3]: Second order rate constant (k*) for inhibition by plasma, extrapolation of half-life in 100% plasma. The class given is in vitro ADME. On the procedure: Briefly, a baseline chymase having the modifications C22S/A226R was used. The concentration of the baseline chymase and the tested chymase-based engineered proteases, listed in Table 11B below, were used at 50 nM, and another tested chymase C22S/L99R/F173Y/K192R/S218L/A226R was used at 25 nM. For the baseline chymase, a time course of protease activity in the presence of plasma was measured using 4.2 uM CPQ2-ITLLSA-K(5FAM)-K-PEG8-K(biotin)-NH2 (SEQ ID NO: 17)/21 uM Neutravidin at 37° C.

The subject of series [4] is serpins. Description: Serpin inhibition tests of chymase-based engineered proteases. The class given is biochemical. How it is done:
Inhibition tests were carried out using chymase-based engineered proteases. Various serpins, which are capable of inhibiting protease activity, were used to test whether these could be used for adequate inhibition of the tested chymase-based engineered proteases, to enable selection of an engineered protease resistant to inhibition in plasma. All references in this Example to engineered proteases are depicted in chymotrypsin numbering. The chymotrypsin numbering key for the modified protease domains of engineered proteases are found in Tables 2, 4, and 6 for uPA, MTSP-1, and chymase, respectively.

Series [5] can be described thus: Half-life in 50% human plasma of chymase-based engineered proteases. The class given is in vitro ADME. The note with it: EGVD′AE substrate. On the procedure: Table 10B presents human Factor B cleavage by various engineered chymase-, MTSP-1-, or uPA-based proteases, tested in mouse or human plasma. For ELISA analysis of Factor B cleavage, briefly, anti-Ba was used, and Bb was detected with anti-Bb. A dynamic range of 25-1600 pM was used. Half-life in 50% human plasma was also calculated for various chymase-based engineered proteases.

Series [6] relates to Factor B depleted human serum spiked with human Factor B, rabbit or chicken RBCs. Description: Factor B add-back hemolysis assay. The class given is biochemical. The note with it: MTSP-1 scaffold, read-out: Hu fB Add-Back EC50. On the procedure: Hemolysis assays were performed to evaluate the hemolytic activity of various lots of Factor B, a lot obtained from CompTech as compared to a lot expressed in-house. Briefly, Factor B depleted human serum was used, and plasma purified or recombinant human Factor B was used for the add-back. Rabbit red blood cells (RBCs) or chicken RBCs were washed in GVB/Mg/EGTA, and the depleted serum was spiked with Factor B. The RBC lysis was then monitored with CVF/FD/human Factor B convertase. These were analyzed to create standard curves from which the Factor B lots were compared. FIGS. 5-6 depict a bar graph of controls used for the hemolysis assay and the standard curves measured from the tested engineered proteases from the Factor B add-back hemolysis assay, respectively. […] This engineered protease was tested at two concentrations (samples 1 and 2). All references in this Example to engineered proteases are depicted in chymotrypsin numbering. The chymotrypsin numbering key for the modified protease domains of engineered proteases are found in Tables 2, 4, and 6 for uPA, MTSP-1, and chymase, respectively.

Setting [7] is: chymase-based engineered proteases, no plasma stated, read-out: fB Cleavage EC50.
Where [8] appears, read: read-out: fB Cleavage, 80% plasma EC50, chymase-based, 80% human plasma.
[9] abbreviates: Plasma Inhibitor: plasma antichymotrypsin (plasma ACT).

B1: C22S/A226R: chymase-based engineered protease, baseline chymase (protein, listed as Homo sapiens)
chain: IIGGTESKPHSRPYMAYLEIVTSNGPSKFCGGFLIRRNFVLTAAHCAGRSITVTLGAHNITEEEDTWQKLEVIKQFRHPKYNTSTLHHDIMLLKLKEKASLTLAVGTLPFPSQFNFVPPGRMCRVAGWGRTGVLKPGSDTLQEVKLRLMDPQACSHFRDFDHNLQLCVGNPRKTKSAFKGDSGGPLLCAGVAQGIVSYGRSDAKPPRVFTRISHYRPWINQILQAN
B1: in series [1], the “k*app EGVD/AE-ACT (SEQ ID NO: 53)” value turned out to be 77. The “fB Cleavage, 80% plasma EC50 (nM)” value in series [2] (chymase-based, 80% human plasma) is reported as “none”. Moreover, in series [3] (extrapolated from k*), the “calculated t1/2 (in 100% plasma)” value is 1.58 min. In addition, the “k*” value in series [3] (inhibition by plasma, 37° C.) is reported as 7.32E−5 %^−1s^−1. Further, the kapp in series [4] (Plasma Inhibitor: ACT) turned out to be 1045 M⁻¹ s⁻¹; in series [4] (Plasma Inhibitor: alpha-2-marcroglobin (A2M)) it was 812 M⁻¹ s⁻¹.

B2: C22S/F173L/Y215H/A226R (protein, listed as Homo sapiens)
chain: B1 chain with F157L, Y198H
For B2, in series [2] (setting [7]), the 50% effective concentration (EC50) came out at 5.99 µM.

B3: C22S/A220S/A226R (protein, listed as Homo sapiens)
chain: B1 chain with A203S
With B3, the EC50 in series [2] (setting [7]) is 5.56 µM.

B4: C22S/A226R/F228A (protein, listed as Homo sapiens)
chain: B1 chain with F209A
For B4, the EC50 in series [2] (setting [7]) worked out at 5.07 µM.

B5: C22S/V138I/L160V/S189T/A226R (protein, listed as Homo sapiens)
chain: B1 chain with V125I, L146V, S176T
As to B5, in series [2] (setting [7]), the EC50 stood at 7.13 µM.

B6: C22S/V138A/G145D/S189T/A190S/A226R (protein, listed as Homo sapiens)
chain: B1 chain with V125A, G132D, S176T, A177S
Consider B6, for which, in series [2] (setting [7]), the EC50 came out at 3.81 µM.

B7: C22S/V138L/S189T/A190G/A226R (protein, listed as Homo sapiens)
chain: B1 chain with V125L, S176T, A177G
On to B7, for which, in series [2] (setting [7]), the EC50 was found to be 4.16 µM.

B8: F41V/L99H/G151V/F173Y/Y215K/R217G/A226R: chymase-based engineered protease (protein, listed as Homo sapiens)
chain: B1 chain with S7C, F29V, L86H, G137V, F157Y, Y198K, R200G
With B8, in series [1], the “k*app EGVD/AE-ACT (SEQ ID NO: 53)” value worked out at 649.

B9: C22S/V138A/S189T/A226R/F228M (protein, listed as Homo sapiens)
chain: B1 chain with V125A, S176T, F209M
Regarding B9, in series [2] (setting [7]), the EC50 is 1.77 µM.

B10: C22S/D175N/A226R (protein, listed as Homo sapiens)
chain: B1 chain with D159N
B10: the EC50 in series [2] (setting [7]) is 0.564 µM; in series [2] (setting [8]), 7.77 µM. Further, in series [5], the “t1/2 in 50% human plasma (min) (EGVD′AE)(SEQ ID NO: 13)” value was 6.2 min.

B11: C22S/V138A/S189T/A226R (protein, listed as Homo sapiens)
chain: B1 chain with V125A, S176T
With B11, the EC50 in series [2] (setting [7]) is 4.42 µM.

B12: C22S: chymase-based engineered protease, chymotrypsin numbering (protein, listed as Homo sapiens)
chain: B1 chain with R207A
For the molecule B12, the “k*app EGVD/AE-ACT (SEQ ID NO: 53)” value in series [1] is recorded as 30.2. In series [4] (setting [9]), this molecule returned a kapp of 31166 M⁻¹ s⁻¹.

B13: C22S/V138S/S189T/A226R/F228M (protein, listed as Homo sapiens)
chain: B1 chain with V125S, S176T, F209M
B13: in series [2] (setting [7]), the EC50 was 2.98 µM.

B14: C22S/F173Y/A226R (protein, listed as Homo sapiens)
chain: B1 chain with F157Y
In the case of B14, the EC50 in series [2] (setting [7]) came to 0.65 µM; in series [2] (setting [8]), 21 µM. Also, in series [5], the “t1/2 in 50% human plasma (min) (EGVD′AE)(SEQ ID NO: 13)” value came out at 5.9 min.

B15: C22S/A190S/A226R (protein, listed as Homo sapiens)
chain: B1 chain with A177S
With B15, the “t1/2 in 50% human plasma (min) (EGVD′AE)(SEQ ID NO: 13)” value in series [5] is reported as 4.2 min. Besides, in series [4] (setting [9]), the kapp was determined as 1599 M⁻¹ s⁻¹.

B16: C22S/S218I/A226R (protein, listed as Homo sapiens)
chain: B1 chain with S201I
For B16, the EC50 in series [2] (setting [7]) came out at 0.83 µM. Moreover, the “t1/2 in 50% human plasma (min) (EGVD′AE)(SEQ ID NO: 13)” value in series [5] stood at 7.8 min.

B17: C22S/V138T/A190S/V213A/A226R (protein, listed as Homo sapiens)
chain: B1 chain with V125T, A177S, V196A
Turning to B17, the EC50 in series [2] (setting [7]) was 6.71 µM.

B18: C22S/V138L/A226R (protein, listed as Homo sapiens)
chain: B1 chain with V125L
On to B18, for which the EC50 in series [2] (setting [7]) came to 3.48 µM.

B19: C22S/V138A/A226R (protein, listed as Homo sapiens)
chain: B1 chain with V125A
Regarding B19, the EC50 in series [2] (setting [7]) came out at 2.94 µM.

B20: MTSP-1 (protein, listed as Homo sapiens)
chain: VVGGTDADEGEWPWQVSLHALGQGHICGASLISPNWLVSAAHCYIDDRGFRYSDPTQWTAFLGLHDQSQRSAPGVQERRLKRIISHPFFNDFTFDYDIALLELEKPAEYSSMVRPICLPDASHVFPAGKAIWVTGWGHTQYGGTGALILQKGEIRVINQTTCENLLPQQITPRMMCVGFLSGGVDSCQGDSGGPLSSVEADGRIFQAGVVSWGDGCAQRNKPGVYTRLPLFRDWIKENTGV
Take B20: the values for the EC50 in series [6] ([Protease]high 400 nM) and in series [6] ([Protease]high 4000 nM) were 0.0322 µM and 0.0373 µM, respectively.
